Where a chain is given by its changes, count along the chain named. In names and notes the source's numbering stands.
B1: LIMP-2 luminal domain H150A (domain or fragment, UniProt Q14108 28-431, looked up)
chain: VFQKAVDQSIEKKIVLRNGTEAFDSWEKPPLPVYTQFYFFNVTNPEEILRGETPRVEEVGPYTYRELRNKANIQFGDNGTTISAVSNKAYVFERDQSVGDPKIDLIRTLNIPVLTVIEWSQVAFLREIIEAMLKAYQQKLFVTHTVDELLWGYKDEILSLIHVFRPDISPYFGLFYEKNGTNDGDYVFLTGEDSYLNFTKIVEWNGKTSLDWWITDKCNMINGTDGDSFHPLITKDEVLYVFPSDFCRSVYITFSDYESVQGLPAFRYKVPAEILANTSDNAGFCIPEGNCLGSGVLNVSICKNGAPIIMSFPHFYQADERFVSAIEGMHPNQEDHETFVDINPLTGIILKAAKRFQINIYVKKLDDFVETGDIRTMVFPVMYLNESVHIDKETASRLKSMINT
notes: LIMP-2 (SCARB2), soluble luminal domain, residues 28–431, with H150A; also called dimerization-deficient mutant; source: Expi293F (HEK), purified in the same manner as the wild-type protein
B2: LIMP-2 luminal domain H150A/F151D (domain or fragment, UniProt Q14108 28-431, looked up)
chain: B1 chain with F124D
notes: LIMP-2 (SCARB2), soluble luminal domain, residues 28–431, with H150A and F151D; also called dimerization-deficient mutant; source: Expi293F (HEK), purified in the same manner as the wild-type protein

Molecular target: the molecule itself
Assay: SEC-MALS; Shodex KW404-4F column; 50 μg of protein; PBS pH 7.2

Row | Protein | binding result
1 | B1 | binds
2 | B2 | binds

From PMC5712522 (Nature Communications, 2017)
